Consider 135 substances from the supplement of paper PMC12042874.

± gives the uncertainty stated by the source.

One data set can be described thus: amyloid nucleation score (Sup35N fusion, yeast selection) (log enrichment); library NNK3; higher = more nucleation; inactive = no reads after selection. In a few lines: (§1)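 Yeast lacking psi expressed peptides of 20 random codons fused to Sup35N, received 100 μM copper sulfate for 24 hours, and were then grown for 7 days at 30°C on medium lacking adenine and uracil. Illumina sequencing of input and output plasmid inserts provided the reads. Nucleation scores are DiMSum log enrichments of output over input, centred on the mode of non-aggregating sequences. Any sequence with under 100 input reads was excluded.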
The substance YSALNSYSWYVTPFYILYWF returned an amyloid nucleation score of 2.56 ± 0.084. For YSAVSTSVMCAE, the amyloid nucleation score entry was “inactive”. As to YSCFFIPWRVGAYRTDNFRS, the amyloid nucleation score entry is “inactive”. For YSFAVPSNLLLLK, the amyloid nucleation score is -0.302 ± 0.52. YSGKYVCAVGF: the amyloid nucleation score entry was “inactive”. Still for that read-out and setting: for YSGLGSIVTNGYSYIYGEVL the value was “inactive”.

Regarding YSIIVSRNRNGRLRFRWSNG, the amyloid nucleation score was -0.368 ± 0.8.

On to YSKYSYSCVDGMIW, for which the amyloid nucleation score result is “inactive”. On to YSLFGWVSMFGC, for which the amyloid nucleation score entry was “inactive”. On to YSMDTPCFINSGVFSADPNL, for which the amyloid nucleation score entry was “inactive”. Still for that read-out and setting: in the case of YSMVFHTWCMRVMRGVFIWM it was “inactive”; in that of YSNHLD, “inactive”. On the same count and under the same terms, for YSNYCGQFSIVPIVFFYIVI the value was 1.1 ± 0.15; for YSQLRARMKCVYLGY, “inactive”; for YSSPRSVNSYGLDYVYRTA, “inactive”. Consider YSVFGVNKQMAFAVCDWHHC, for which the amyloid nucleation score is 0.477 ± 0.17.

For the substance YSVMSNHETIYYMSVS, the amyloid nucleation score entry is “inactive”. Consider YTDSLVLPHGHMIGRVQSFY, for which the amyloid nucleation score result was “inactive”. As for YTFNVNITPFTMYHSFIYFS, the amyloid nucleation score was found to be 3.08 ± 0.051.

With YTIYIIIRW, the amyloid nucleation score stood at 1.03 ± 0.084.

As for YTKATHSVMFGFTVIVVF, the amyloid nucleation score entry is “inactive”. As to YTLMFNCRFALLFYYTFSYG, the amyloid nucleation score entry is “inactive”. The same measure, in the same setting: in the case of YTMVWFLSSYSNY it was “inactive”; in that of YTVSS, “inactive”. Take YVFSTWSSP: the amyloid nucleation score entry is “inactive”.

As to YVGTYNFICEAYALDMTEQW, the amyloid nucleation score result was “inactive”. The same measure, in the same setting: for YVICVISVQRWTM the value was “inactive”; for YVIICYST, -0.539 ± 1; for YVIITGRKQGITNM, “inactive”.

As for YVKGRSETCPKDRIKGVRSD, the amyloid nucleation score result was “inactive”. The same measure, in the same setting: for YVKPDDDAQVKVGWGQFSVG the value was “inactive”.

Take YVLKLSRYMPN: the amyloid nucleation score entry was “inactive”. Same read-out and setting: in the case of YVLNKGFWGGNTLQSWRVSD it was “inactive”; in that of YVLRLASCSFTPVSEVHLSW, “inactive”; in that of YVMNHTLGAILNAFRGI, 1.04 ± 0.17.

On to YVNLCLGANPRSYMFKYGTH, for which the amyloid nucleation score was 0.197 ± 0.66.

YVNLHPMLATAAIYVNSSAG: the amyloid nucleation score result is “inactive”. With YVPIIWYASQHLVPSKSYSA, the amyloid nucleation score result was “inactive”. For the substance YVRIWSFMNYAVMVSITLIV, the amyloid nucleation score entry is “inactive”. The same measure, in the same setting: for YVRWCQWYGETDGPCCRNTV the value was “inactive”; for YVSCK, “inactive”. Still for that read-out and setting: in the case of YVVFFDFLSQTVIWVSPGRF it was “inactive”; in that of YVVPRFTVMGEQKKCQWRSL, “inactive”. Same read-out and setting: in the case of YVWMKGHNHYFFESMDVYLM it was “inactive”; in that of YVYSVFFYRWW, “inactive”; in that of YWAQLPNPPYLLCPH, “inactive”. For YWFDSPPSFRAYPCWNR, the amyloid nucleation score result was “inactive”.

Regarding YWLGA, the amyloid nucleation score entry is “inactive”. Still for that read-out and setting: for YWLIRDLWRGRGS the value was “inactive”; for YWLRVIKRHRDRHR, “inactive”; for YWMPIDLGFSSLNWPESSRS, “inactive”. Consider YWNFYSSNLYWT, for which the amyloid nucleation score entry was “inactive”.

With YWVRNVGYRRNSSSCTWSRG, the amyloid nucleation score entry is “inactive”. Same read-out and setting: in the case of YWVTLFRSARVWMITLNLFD it was “inactive”; in that of YYCMFVGD, 1.24 ± 0.15; in that of YYDMIMLPAKSDANRCYGCA, “inactive”. The same measure, in the same setting: for YYFCMLS the value was 2.55 ± 0.072; for YYFFRKYEENFSGSNTGLVI, “inactive”; for YYFRAQADCFMYICVLDLDG, “inactive”.

As to YYFTFFIKCMRNIMVNSMAA, the amyloid nucleation score entry was “inactive”.

With YYNTYCTVDIYYLNPCVNLQ, the amyloid nucleation score came out at 3.01 ± 0.056. YYRLFLI: the amyloid nucleation score result is “inactive”. YYSVMCRVRVA: the amyloid nucleation score result is “inactive”.

As to YYVRRIMT, the amyloid nucleation score entry is “inactive”. Same read-out and setting: in the case of YYWCFSF it was 2.23 ± 0.06; in that of YYYLR, “inactive”.

The next data set in a line: amyloid nucleation score (Sup35N fusion, yeast selection) (log enrichment); library NNK2; higher = more nucleation; inactive = no reads after selection. An outline of the steps: as §1
Consider AAAYCYRTEEW, for which the amyloid nucleation score was found to be 1.6 ± 0.22. In turn, ACCRTNFATLVLKEKMNLD came in with an amyloid nucleation score of 0.326 ± 0.3. Still for that read-out and setting: in the case of ACFSNMDCPGGFVHVFALYG it was “inactive”; in that of ACQPVWIESRFSLAERTRLS, 0.012 ± 1. Still for that read-out and setting: for ACRLISLVML the value was “inactive”; for ACVTPTAARNQIPALIYDTS, -0.135 ± 0.63. Still for that read-out and setting: in the case of ADCFWAIDYPTWAYRIYGSH it was “inactive”; in that of ADLSRRLGMFVVLCLGGWAW, -0.326 ± 0.63. In the case of ADRWYYMQPNTLCSNVTANA, the amyloid nucleation score came out at 1.26 ± 0.37. The substance ADYGVGSRFFVALFSNVFGV returned an amyloid nucleation score of 8.15 ± 0.071. Same read-out and setting: for ADYLRDSFQRWLMEVGLDRR the value was 1.44 ± 0.26; for AEADGYLFSALHTPYWTSGV, 0.294 ± 0.64; for AEQRWTVRIVLSYYVSKINI, 0.316 ± 0.65. On the same count and under the same terms, for AFCMDYAAQSAVTRSRDSCS the value was 0.909 ± 0.53; for AFESKAPGRSSLVGIACSYS, -0.48 ± 0.48. AFFACRNASSHTLWMLG gave an amyloid nucleation score of 5.91 ± 0.07. Substance AFHRECPGSSVQDWFTWRGT returned an amyloid nucleation score of -0.36 ± 0.63. In turn, AFLSLFNSYWYFVFAKLF returned an amyloid nucleation score of -0.558 ± 0.74. AFQWYLM had an amyloid nucleation score of -0.693 ± 0.18.

On to AFSSCSMFATNRLPTSYKSD, for which the amyloid nucleation score stood at 3.48 ± 0.084. AFTCYVETSIIMPNMS returned an amyloid nucleation score of -0.734 ± 0.76. On to AFYCQRDRVE, for which the amyloid nucleation score was 3.18 ± 0.099. AGLLPENYFSCILGINVVIF gave an amyloid nucleation score of 3.13 ± 0.065.

In turn, AGPAQQYMCMTCVTSVHTDP registered an amyloid nucleation score of 8.84 ± 0.045. On the same count and under the same terms, for AGPDSVQCRCSLKSSEGSCG the value was 6.776 ± 0.066.

Regarding AGRLLGNVGNWRANEGAGGD, the amyloid nucleation score was -0.833 ± 1.1. On to AGSSSVNQITCLH, for which the amyloid nucleation score is -0.22 ± 1.

In turn, AHHCVGYCSHIFQDPRGRVM gave an amyloid nucleation score of 0.22 ± 0.44. For AHKLCSFSVSKHHFWRLNGK, the amyloid nucleation score is -0.023 ± 0.62. As for AHLAKSKVGLFCHNVMFEVP, the amyloid nucleation score is -0.381 ± 1.1. Still for that read-out and setting: in the case of AHLARGGWFVKRCYSGGDVF it was -0.087 ± 0.76. The same measure, in the same setting: for AICMAY the value was 1.27 ± 0.095; for AINLGSDYKWSGMAFVKG, 0.285 ± 1. Still for that read-out and setting: in the case of AIPSRPSFLKPQPRILFTIP it was -0.702 ± 0.39. The substance AISGWCNMNCKLGKQWDYLV yielded an amyloid nucleation score of 1.25 ± 0.66. The same measure, in the same setting: for AISVKKWSFHEKKRNTMLT the value was -0.027 ± 0.28; for AIWGTHPQRRDIRKRERIVV, -0.205 ± 0.27; for AKCPIRNRSLSCIQWSGGAK, 0.398 ± 0.27.

As to AKDRTCRWLISKQSIPDSRA, the amyloid nucleation score was 0.119 ± 0.27.

In the case of AKKLMSWEAVVLWGASRCVT, the amyloid nucleation score was 1.08 ± 0.42. As to AKVWDCGSPKVQYIVARQVV, the amyloid nucleation score was 0.042 ± 0.46. ALAACSNSRG: the amyloid nucleation score is 0.416 ± 0.54. Still for that read-out and setting: in the case of ALCRGW it was -0.689 ± 0.41; in that of ALCWVGSYSACLRIFKPSRM, 0.521 ± 0.41; in that of ALFRD, 0.066 ± 1.

Regarding ALFSIITVFSVRLVVWT, the amyloid nucleation score result was “inactive”. Still for that read-out and setting: in the case of ALGENAPILDRWLIGSLVFL it was 1.77 ± 0.39. The same measure, in the same setting: for ALHSWFRMSSLSMYIVDMGG the value was -0.077 ± 0.76; for ALKNLHAHTG, 0.015 ± 0.8.

For the substance ALPCRLISFFALVGWIVG, the amyloid nucleation score was -0.088 ± 0.49. For the substance ALPTWWVDKNLLSCLYSELS, the amyloid nucleation score was -0.104 ± 0.62.

In the case of ALRISQFCIL, the amyloid nucleation score is -0.261 ± 1.1. In turn, ALRYVMRLY returned an amyloid nucleation score of 2.53 ± 0.11. Same read-out and setting: in the case of ALSYFTGCRF it was 0.766 ± 0.47. Substance ALYLMTFPSRDLIRACEEA yielded an amyloid nucleation score of 0.678 ± 0.56. On to AMGMRTSYCGC, for which the amyloid nucleation score result was “inactive”.

Take AMPSNMLGTSGSYDAC: the amyloid nucleation score worked out at 0.404 ± 0.66.

In the case of AMQVVTVLNATACEMWAMGL, the amyloid nucleation score was 7.498 ± 0.034. For the substance AMTTRFCGVFLKGWL, the amyloid nucleation score stood at 0.176 ± 0.64. For AMVLLYDGTGSTGVNPGQAG, the amyloid nucleation score amounted to 0.987 ± 0.67. For AMVWGSIFSRKSQGLSHSSG, the amyloid nucleation score result was “inactive”. As for ANLFVCMDDM, the amyloid nucleation score is -0.051 ± 0.23.

ANLRNSW displayed an amyloid nucleation score of -0.82 ± 0.56.

The substance ANQDGNCFGFISVGSQLSLM showed an amyloid nucleation score of 0.387 ± 0.8. Consider ANWQWPYCCCCLEGIGRNLF, for which the amyloid nucleation score stood at 4.94 ± 0.073. APFLGRLEVRV yielded an amyloid nucleation score of 0.563 ± 0.37.

In the case of APFQRPSSPTDREYRNGALL, the amyloid nucleation score was found to be 1.27 ± 0.23. The substance APTQDTLEFRHISFEVVWRT had an amyloid nucleation score of 2.84 ± 0.18. The same measure, in the same setting: in the case of AQAMLSNTILIYEYRDLFIV it was -0.962 ± 0.78.
